Reference: US20240368282A1 (BIOSCEPTRE AUST, published 2024)

Legend:
[1] = molecular target: T1, CD135 (UniProt P36888 27-993, limits assumed); assay: flow cytometry, anti-HIS antibody
T1 construct: whole, on cells; also called FLT-3

[2] = molecular target: T2, BCMA (UniProt Q02223 1-184, limits assumed); assay: flow cytometry, anti-HIS antibody
T2 construct: whole, on cells
T2 sequence (looked up): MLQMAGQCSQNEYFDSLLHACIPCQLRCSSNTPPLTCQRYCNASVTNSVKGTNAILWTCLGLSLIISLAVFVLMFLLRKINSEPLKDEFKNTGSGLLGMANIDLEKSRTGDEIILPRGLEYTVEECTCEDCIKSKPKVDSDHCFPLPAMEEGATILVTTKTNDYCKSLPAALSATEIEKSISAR

[3] = molecular target: T3, CD123 (UniProt P26951 19-378, limits assumed); assay: flow cytometry, anti-HIS antibody
T3 construct: whole, on cells; also called IL3RA
T3 sequence (P26951 19-378 limits assumed): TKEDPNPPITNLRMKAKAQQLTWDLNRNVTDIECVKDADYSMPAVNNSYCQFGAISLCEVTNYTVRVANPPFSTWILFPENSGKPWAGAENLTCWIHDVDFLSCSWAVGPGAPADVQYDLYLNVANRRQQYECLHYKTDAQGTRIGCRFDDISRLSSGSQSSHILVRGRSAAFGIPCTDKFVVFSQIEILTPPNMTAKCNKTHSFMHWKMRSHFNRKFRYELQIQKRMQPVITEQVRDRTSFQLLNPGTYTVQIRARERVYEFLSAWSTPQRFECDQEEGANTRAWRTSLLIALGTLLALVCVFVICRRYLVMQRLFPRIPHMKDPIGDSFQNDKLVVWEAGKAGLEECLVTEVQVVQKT

[4] = molecular target: T4, CD16 (human, UniProt P08637 17-254); assay: binding to NK cells (method not told)
T4 construct: whole, on cells; CD16 is the antigen of the 3G8 arm of these molecules; also called FcγRIII
T4 sequence (P08637 17-254): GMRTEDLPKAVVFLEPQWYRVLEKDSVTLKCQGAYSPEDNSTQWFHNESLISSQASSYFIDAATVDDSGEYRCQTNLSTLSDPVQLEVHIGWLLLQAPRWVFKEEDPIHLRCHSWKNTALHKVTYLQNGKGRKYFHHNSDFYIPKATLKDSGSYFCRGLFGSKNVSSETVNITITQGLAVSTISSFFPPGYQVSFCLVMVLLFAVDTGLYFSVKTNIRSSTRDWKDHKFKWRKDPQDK

[5] = molecular target: T5, CD37 (UniProt P11049 1-281, limits assumed); assay: flow cytometry, anti-HIS antibody
T5 construct: whole, on cells
T5 sequence (looked up): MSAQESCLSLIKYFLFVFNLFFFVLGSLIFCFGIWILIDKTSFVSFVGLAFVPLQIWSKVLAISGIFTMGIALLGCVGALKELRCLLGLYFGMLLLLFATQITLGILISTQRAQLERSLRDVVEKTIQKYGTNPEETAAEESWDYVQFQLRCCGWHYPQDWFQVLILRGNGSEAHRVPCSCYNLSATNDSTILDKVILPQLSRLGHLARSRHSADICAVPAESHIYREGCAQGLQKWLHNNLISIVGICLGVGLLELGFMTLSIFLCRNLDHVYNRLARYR

[6] = molecular target: T6, CD22 (UniProt P20273 20-847, limits assumed); assay: flow cytometry, anti-HIS antibody
T6 construct: whole, on cells

[7] = molecular target: T7, CD33 (UniProt P20138 18-364, limits assumed); assay: flow cytometry, anti-HIS antibody
T7 construct: whole, on cells; Endogenous on human cell lines; also called Siglec-3
T7 sequence (P20138 18-364 limits assumed): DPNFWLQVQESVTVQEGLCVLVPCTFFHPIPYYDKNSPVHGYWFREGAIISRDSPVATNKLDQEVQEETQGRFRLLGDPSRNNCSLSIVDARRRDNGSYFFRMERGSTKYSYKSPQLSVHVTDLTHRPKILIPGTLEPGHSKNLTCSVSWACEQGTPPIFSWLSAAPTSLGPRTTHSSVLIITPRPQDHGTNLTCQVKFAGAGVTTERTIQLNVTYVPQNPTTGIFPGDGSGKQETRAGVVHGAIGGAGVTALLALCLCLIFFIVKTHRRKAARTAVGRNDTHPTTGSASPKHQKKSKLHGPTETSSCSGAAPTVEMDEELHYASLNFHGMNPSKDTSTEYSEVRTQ

[8] = molecular target: T6, CD22; assay: flow cytometry (data not shown)
[9] = molecular target: T8, CD70 (UniProt P32970 1-193, limits assumed); assay: flow cytometry, anti-HIS antibody
T8 construct: whole, on cells
T8 sequence (looked up): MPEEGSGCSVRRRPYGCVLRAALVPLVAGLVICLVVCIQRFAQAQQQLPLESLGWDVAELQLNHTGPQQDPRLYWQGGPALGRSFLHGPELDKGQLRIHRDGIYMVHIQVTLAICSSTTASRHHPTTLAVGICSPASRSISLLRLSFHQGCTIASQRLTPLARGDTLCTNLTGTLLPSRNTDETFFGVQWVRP

[10] = molecular target: T9, CD79B (UniProt P40259 29-229, limits assumed); assay: flow cytometry, anti-HIS antibody
T9 construct: whole, on cells
T9 sequence (looked up): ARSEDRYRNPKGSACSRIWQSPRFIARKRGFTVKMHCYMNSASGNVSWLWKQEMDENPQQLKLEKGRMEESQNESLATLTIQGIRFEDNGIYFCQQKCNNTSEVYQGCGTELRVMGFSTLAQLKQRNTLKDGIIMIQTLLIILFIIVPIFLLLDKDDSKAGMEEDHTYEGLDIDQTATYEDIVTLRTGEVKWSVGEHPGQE

[11] = molecular target: T10, ROR1 (UniProt Q01973 30-937, limits assumed); assay: flow cytometry, anti-HIS antibody
T10 construct: whole, on cells

[12] = molecular target: T11, EGFR (UniProt P00533 25-1210); assay: flow cytometry, anti-HIS antibody
T11 construct: whole, on cells

B1: CD135 bridging molecule derived from 4G8 (Fab, V domains shown)
VH: QVQLQQPGAELVKPGASLKLSCKSSGYTFTSYWMHWVRQRPGHGLEWIGEIDPSDSYKDYNQKFKDKATLTVDRSSNTAYMHLSSLTSDDSAVYYCARAITTTPFDFWGQGTTLTVSS
VL: DIVLTQSPATLSVTPGDSVSLSCRASQSISNNLHWYQQKSHESPRLLIKYASQSISGIPSRFSGSGSGTDFTLSINSVETEDFGVYFCQQSNTWPYTFGGGTKLEIKR
notes: Fab with E200 at the N-terminus of the light chain, 6xHis on both chains; also called B041; CD135, clone 4G8, B041-1_LC / B041-2_HC
[1]
  binding result: binds

B2: BCMA bridging molecule derived from clone CA8 J9M0 (Fab, V domains shown)
VH: QVQLVQSGAEVKKPGSSVKVSCKGSGYTFTNYWMHWVRQAPGQGLEWIGATYRGHSDTYYNQKFKGRATLTADTSTSTAYMELSSLRSEDTAVYYCTRGAIYDGYDVLDNWGQGTLVTVSS
VL: DIQMTQSPSSLSASVGDRVTITCSASQDISNYLNWYQQKPGKAPKLLIYYTSNLHSGVPSRFSGSGSGTDFTLTISSLQPEDFATYYCQQYRKLPWTFGQGTKLEIKR
notes: Fab with E200 at the N-terminus of the light chain, 6xHis on both chains; also called B039; BCMA, clone CA8 J9M0, B039-1_LC / B039-2_HC
[2]
  binding result: binds

B3: CD123 bridging molecule derived from clone 32716 (Fab, V domains shown)
VH: QIQLVQSGPELKKPGETVKISCKASGYIFTNYGMNWVKQAPGKSFKWMGWINTYTGESTYSADFKGRFAFSLETSASTAYLHINDLKNEDTATYFCARSGGYDPMDYWGQGTSVTVSS
VL: DIVLTQSPASLAVSLGQRATISCRASESVDNYGNTFMHWYQQKPGQPPKLLIYRASNLESGIPARFSGSGSRTDFTLTINPVEADDVATYYCQQSNEDPPTFGAGTKLELKR
notes: Fab with E200 at the N-terminus of the light chain, 6xHis on both chains; also called B042; CD123, clone 32716, B042-1_LC / B042-2_HC
[3]
  binding result: binds

B4: OR_BiKE1 OR105 (nfP2X7 x CD16) (bispecific antibody)
chain: DIQMTQSPSSLSASVGDRVTITCRASQYIYDYLNWYQQKPGKAPKLLIYAASYLQSGVPSRFSGSGSGTDFTLTISSLQPEDFATYYCQQYHHPSTFGQGTKVEIKRGGGGSGGGGSGGGGSEVQLLESGGGLVQPGGSLRLSCAASGFTFRNHDMGWVRQAPGKGLEWVSAISGSGGSTYYANSVKGRFTISRDNSKNTLYLQMNSLRAEDTAVYYCAEPKPMDTEFDYRSPGTLVTVSSVEGGSGGSGGSGGSGGVDQVTLKESGPGILQPSQTLSLTCSFSGFSLRTSGMGVGWIRQPSGKGLEWLAHIWWDDDKRYNPALKSRLTISKDTSSNQVFLKIASVDTADTATYYCAQINPAWFAYWGQGTLVTVSSGGGGSGGGGSGGGGSDIVLTQSPASLAVSLGQRATISCKASQSVDFDGDSFMNWYQQKPGQPPKLLIYTTSNLESGIPARFSASGSGTDFTLNIHPVEEEDTATYYCQQSNEDPYTFGGGTKLEIKHHHHHH
[4]
  binding result: binds

B5: CD37 bridging molecule derived from otlertuzumab (Fab, V domains shown)
VH: EVQLVQSGAEVKKPGESLKISCKGSGYSFTGYNMNWVRQMPGKGLEWMGNIDPYYGGTTYNRKFKGQVTISADKSISTAYLQWSSLKASDTAMYYCARSVGPFDSWGQGTLVTVSS
VL: EIVLTQSPATLSLSPGERATLSCRASENVYSYLAWYQQKPGQAPRLLIYFAKTLAEGIPARFSGSGSGTDFTLTISSLEPEDFAVYYCQHHSDNPWTFGQGTKVEIKR
notes: Fab with E200 at the N-terminus of the light chain, 6xHis on both chains; also called B026; CD37, Otlertuzumab, B026-1_LC / B026-2_HC
[5]
  binding result: binds

B6: CD22 bridging molecule derived from m971-L7 (Fab, V domains shown)
VH: QVQLQQSGPGMVKPSQTLSLTCAISGDSVSSNSVAWNWIRQSPSRGLEWLGRTYYRSTWYNDYAVSMKSRITINPDTNKNQFSLQLNSVTPEDTAVYYCAREVTGDLEDAFDIWGQGTMVTVSS
VL: DIQMIQSPSSLSASVGDRVTITCRASQTIWSYLNWYRQRPGEAPNLLIYAASSLQSGVPSRFSGRGSGTDFTLTISSLQAEDFATYYCQQSYSIPQTFGQGTKLEIKR
notes: Fab with E200 at the N-terminus of the light chain, 6xHis on both chains; also called B023; CD22, m971-L7, B023-1 LC / B023-2_Heavy Chain
[6]
  binding result: binds

B7: OR_BiKE2 OR106 (CD16 x nfP2X7) (bispecific antibody)
chain: DIVLTQSPASLAVSLGQRATISCKASQSVDFDGDSFMNWYQQKPGQPPKLLIYTTSNLESGIPARFSASGSGTDFTLNIHPVEEEDTATYYCQQSNEDPYTFGGGTKLEIKGGGGSGGGGSGGGGSQVTLKESGPGILQPSQTLSLTCSFSGFSLRTSGMGVGWIRQPSGKGLEWLAHIWWDDDKRYNPALKSRLTISKDTSSNQVFLKIASVDTADTATYYCAQINPAWFAYWGQGTLVTVSSVEGGSGGSGGSGGSGGVDEVQLLESGGGLVQPGGSLRLSCAASGFTFRNHDMGWVRQAPGKGLEWVSAISGSGGSTYYANSVKGRFTISRDNSKNTLYLQMNSLRAEDTAVYYCAEPKPMDTEFDYRSPGTLVTVSSGGGGSGGGGSGGGGSDIQMTQSPSSLSASVGDRVTITCRASQYIYDYLNWYQQKPGKAPKLLIYAASYLQSGVPSRFSGSGSGTDFTLTISSLQPEDFATYYCQQYHHPSTFGQGTKVEIKRHHHHHH
notes: 3G8 scFv-linker-BIL03/WTB1 scFv-6xHis
[4]
  binding result: binds

B8: CD33 BRiDGE (B031) (Fab, V domains shown)
VH: QVQLVQSGAEVKKPGSSVKVSCKASGYTFTDYNMHWVRQAPGQGLEWIGYIYPYNGGTGYNQKFKSKATITADESTNTAYMELSSLRSEDTAVYYCARGRPAMDYWGQGTLVTVSS
VL: DIQMTQSPSSLSASVGDRVTITCRASESVDNYGISFMNWFQQKPGKAPKLLIYAASNQGSGVPSRFSGSGSGTDFTLTISSLQPDDFATYYCQQSKEVPWTFGQGTKVEIKR
notes: 6xHis on both chains; also called CD33 bridging molecule; CD33 Fab
[7]
  binding result: binds

B9: CD22 bridging molecule derived from inotuzumab (Fab, V domains shown)
VH: EVQLVQSGAEVKKPGASVKVSCKASGYRFTNYWIHWVRQAPGQGLEWIGGINPGNNYATYRRKFQGRVTMTADTSTSTVYMELSSLRSEDTAVYYCTREGYGNYGAWFAYWGQGTLVTVSS
VL: DVQVTQSPSSLSASVGDRVTITCRSSQSLANSYGNTFLSWYLHKPGKAPQLLIYGISNRFSGVPDRFSGSGSGTDFTLTISSLQPEDFATYYCLQGTHQPYTFGQGTKVEIKR
notes: also called B024; CD22, Inotuzumab, B024-1_LC / B024-2_HC
[8]
  binding result: binds

B10: CD70 bridging molecule derived from cusatuzumab (Fab, V domains shown)
VH: EVQLVESGGGLVQPGGSLRLSCAASGFTFSVYYMNWVRQAPGKGLEWVSDINNEGGTTYYADSVKGRFTISRDNSKNSLYLQMNSLRAEDTAVYYCARDAGYSNHVPIFDSWGQGTLVTVSS
VL: SQAVVTQEPSLTVSPGGTVTLTCGLKSGSVTSDNFPTWYQQTPGQAPRLLIYNTNTRHSGVPDRFSGSILGNKAALTITGAQADDEAEYFCALFISNPSVEFGGGTQLTVLK
notes: Fab with E200 at the N-terminus of the light chain, 6xHis on both chains; also called B028; CD70, Cusatuzumab, B028-1_LC / B028-2_HC
[9]
  binding result: binds

B11: CD79B bridging molecule derived from polatuzumab (Fab, V domains shown)
VH: EVQLVESGGGLVQPGGSLRLSCAASGYTFSSYWIEWVRQAPGKGLEWIGEILPGGGDTNYNEIFKGRATFSADTSKNTAYLQMNSLRAEDTAVYYCTRRVPIRLDYWGQGTLVTVSS
VL: DIQLTQSPSSLSASVGDRVTITCKASQSVDYEGDSFLNWYQQKPGKAPKLLIYAASNLESGVPSRFSGSGSGTDFTLTISSLQPEDFATYYCQQSNEDPLTFGQGTKVEIKR
notes: Fab with E200 at the N-terminus of the light chain, 6xHis on both chains; also called B025; CD79B, Polatuzumab, B025-1 LC / B025-2_HC
[10]
  binding result: binds

B12: ROR1 bridging molecule derived from ROR1 APC (WO2016016344A1_D10v3) (Fab, V domains shown)
VH: QVQLKESGPGLVAPSQTLSITCTVSGFSLTSYGVHWVRQPPGKGLEWLGVIWAGGFTNYNSALKSRLSISKDNSKSQVLLKMTSLQTDDTAMYYCARRGSSYSMDYWGQGTSVTVSS
VL: EIVLSQSPAITAASLGQKVTITCSASSNVSYIHWYQQRSGTSPRPWIYEISKLASGVPVRFSGSGSGTSYSLTISSMEAEDAAIYYCQQWNYPLITFGSGTKLEIQR
notes: Fab with E200 at the N-terminus of the light chain, 6xHis on both chains; also called B044; ROR-1, clone D10v3, B044-1 LC / B044-2_HC
[11]
  binding result: binds

B13: EGFR bridging molecule derived from matuzumab (Fab, V domains shown)
VH: QVQLVQSGAEVKKPGASVKVSCKASGYTFTSHWMHWVRQAPGQGLEWIGEFNPSNGRTNYNEKFKSKATMTVDTSTNTAYMELSSLRSEDTAVYYCASRDYDYDGRYFDYWGQGTLVTVSS
VL: DIQMTQSPSSLSASVGDRVTITCSASSSVTYMYWYQQKPGKAPKLLIYDTSNLASGVPSRFSGSGSGTDYTFTISSLQPEDIATYYCQQWSSHIFTFGQGTKVEIKR
notes: also called B035; EGFR, Matuzumab, B035-1_LC / B035-2_HC
[12]
  binding result: binds
